# Substrate: C=O
# Assay: purified protein
# Assay type: biochemical, Bacillus subtilis
# Details: 10 mM NAD+, 50 mM BISTRIS propane pH 9.0, 25 mM NaCl, 37 °C (Fig 6 legend; methods say 40 °C)
protein,measurement,value
"YycR (Bacillus subtilis subsp. subtilis str. 168) (protein, full-length, C-terminal His tag (pNIC-CH) kept, E. coli T7 Express, HisTrap purified, 44 kDa; zinc-type, metal as purified) MGGMALTGNKAVVYKGKGTVAVEDIGYPELILRDGPGVPKANVNRKCEHGVILKVITTNICGSDQHMVRGRTTAPEGLVLGHEITGEVIETGRDVEFIKKGDIVSVPFNIACGRCVMCKTQKTHVCLNVNPDRPGSAYGYVDMGGWVGGQSEYVMVPYADFQLLVFPDKEQALEKILDLTMLSDIFPTGFHGAYTAGVQTGSTVYIAGAGPVGLAAAHSAQLLGASTVIVGDLNEDRLAQARSFGCETVNVQKHDRLGEQIEQILGEPTVDAAVDCVGFEASGHGNQGEAPAAVLNSIMDVTQVGGSLGIPGLYVTEDPGAKDADAKTGSLKIRFGLGWAKAHTFVTGQTPAMTYNRNLMKAILSGRAQIAKAVNATVISLDDAPKGYSDFDKGAAKKFVIDPHGTLK",Km,190 ± 50 µM
same,kcat,0.52 s⁻¹

# — publication PMC11577753, “Identification and characterization of a novel formaldehyde dehydrogenase in Bacillus subtilis” (Applied and Environmental Microbiology, 2024)
